As a reminder, the stoichiometry N is the number of molecules, sites or subunits per partner or assembly.

For assay [1], the target named is Rap1a (resistance-associated protein 1a, immunity protein of Ssp1), without N-terminal periplasmic targeting sequence (Serratia marcescens). In words: SEC; Rap1a alone in solution (Supplementary Fig. S1). (In general: Size exclusion chromatography separates by hydrodynamic size, large species first.)
Assay [2] shares this target. In words: crystal structure; Rap1a alone; reservoir 25% PEG 3350, 100 mM bis-tris pH 5.5; about 2.0 A; two molecules in the asymmetric unit.
Assay [3] deals with Rap2a (resistance-associated protein 2a, immunity protein of Ssp2), without N-terminal periplasmic targeting sequence (Serratia marcescens). In words: crystal structure; Rap2a alone, 13.5 mg/ml; reservoir 25% PEG 1000, 0.1 M MES pH 6.5; 1.9 A; four molecules in the asymmetric unit.

“Rap1a (resistance-associated protein 1a, immunity protein of Ssp1), without N-terminal periplasmic targeting sequence (natural protein)”: the stoichiometry N in assay [1] and in assay [2] was 2 in each case. In turn, “Rap2a (resistance-associated protein 2a, immunity protein of Ssp2), without N-terminal periplasmic targeting sequence (natural protein)” gave a stoichiometry N in assay [3] of 2.

The values are drawn from PMC3852654.
